Laboratory results taken from paper PMC9160021, “Artificial intelligence-assisted cryoEM structure of Bfr2-Lcp5 complex observed in the yeast small subunit processome” (Communications Biology, 2022).

T1: Enp2 (S. cerevisiae (endogenous in yeast …, UniProt P48234 1-707))
T1 construct: Enp2, S. cerevisiae, endogenous in the Δpih1-90S; its β-propeller is named as the part that Bfr2 touches; Endogenous protein of the 90S particle
T1 sequence (looked up): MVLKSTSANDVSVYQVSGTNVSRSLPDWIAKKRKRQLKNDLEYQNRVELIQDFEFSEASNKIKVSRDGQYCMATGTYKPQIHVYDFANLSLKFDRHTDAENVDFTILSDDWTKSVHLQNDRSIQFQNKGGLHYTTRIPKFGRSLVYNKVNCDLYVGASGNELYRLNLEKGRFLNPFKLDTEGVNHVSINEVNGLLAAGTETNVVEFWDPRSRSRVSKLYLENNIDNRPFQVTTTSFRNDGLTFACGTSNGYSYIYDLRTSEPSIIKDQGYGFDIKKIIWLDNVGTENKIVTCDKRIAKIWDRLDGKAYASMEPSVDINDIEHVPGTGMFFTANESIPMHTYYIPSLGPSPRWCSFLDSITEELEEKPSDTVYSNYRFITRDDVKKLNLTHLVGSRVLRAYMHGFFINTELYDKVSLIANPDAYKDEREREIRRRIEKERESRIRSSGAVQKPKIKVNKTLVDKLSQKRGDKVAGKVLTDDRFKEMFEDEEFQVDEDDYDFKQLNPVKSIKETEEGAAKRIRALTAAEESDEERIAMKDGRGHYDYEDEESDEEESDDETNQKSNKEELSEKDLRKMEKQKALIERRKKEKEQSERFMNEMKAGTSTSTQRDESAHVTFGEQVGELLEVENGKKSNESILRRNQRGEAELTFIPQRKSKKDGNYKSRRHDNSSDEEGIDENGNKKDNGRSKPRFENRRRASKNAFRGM

T2: MBP-Bfr2(266–432) (S. cerevisiae (genomic DNA of BY4741 …, UniProt Q06631 266-432))
T2 construct: source: E. coli Rosetta(DE3); in lysate (pull-down in cell) and purified (amylose, monoQ, gel filtration)
T2 sequence (looked up): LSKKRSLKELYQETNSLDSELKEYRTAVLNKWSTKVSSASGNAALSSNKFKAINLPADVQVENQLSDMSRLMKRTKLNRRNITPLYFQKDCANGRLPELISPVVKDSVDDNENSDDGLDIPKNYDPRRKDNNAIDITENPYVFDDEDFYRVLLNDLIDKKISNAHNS

B1: Bfr2 (natural protein, UniProt Q06631 1-534, looked up)
chain: MEKSLADQISDIAIKPVNKDFDIEDEENASLFQHNEKNGESDLSDYGNSNTEETKKAHYLEVEKSKLRAEKGLELNDPKYTGVKGSRQALYEEVSENEDEEEEEEEEEEKEEDALSFRTDSEDEEVEIDEEESDADGGETEEAQQKRHALSKLIQQETKQAINKLSQSVQRDASKGYSILQQTKLFDNIIDLRIKLQKAVIAANKLPLTTESWEEAKMDDSEETKRLLKENEKLFNNLFNRLINFRIKFQLGDHITQNEEVAKHKLSKKRSLKELYQETNSLDSELKEYRTAVLNKWSTKVSSASGNAALSSNKFKAINLPADVQVENQLSDMSRLMKRTKLNRRNITPLYFQKDCANGRLPELISPVVKDSVDDNENSDDGLDIPKNYDPRRKDNNAIDITENPYVFDDEDFYRVLLNDLIDKKISNAHNSESAAITITSTNARSNNKLKKNIDTKASKGRKLNYSVQDPIANYEAPITSGYKWSDDQIDEFFAGLLGQRVNFNENEDEEQHARIENDEELEAVKNDDIQIFG
notes: Bfr2, S. cerevisiae, endogenous in the Δpih1-90S; the whole protein is 1–534; Endogenous protein of the 90S particle; only part of it is modelled in the map
B2: Lcp5 (natural protein, UniProt P40079 1-357, looked up)
chain: MSELNALLKDINGSLTATSESLERLSGIYSNSATDEIPESNQLHEHLFYDAKKPAEKVSLLSLKNGSMLGYINSLLMLIGNRLDDECKDPSAMDARERSIQHRVVLERGVKPLEKKLAYQLDKLTRAYVKMEKEYKDAEKRALEKSTLVNHSGNDDSEDDESSEDEIAYRPNTSGIINTNKKSSAYRVEETAKQENGEENDDNETGVYKPPKITAVLPPQQTHFEDRFDAREHKDRSNKSRMQAMEEYIRESSDQPDWSASIGADIVNHGRGGIKSLRDTEKERRVTSFEEDNFTRLNITNKAEKRKQKQRERNARMNVIGGEDFGIFSSKRKLEDSTSRRGAKKTRSAWDRAQRRL
notes: Lcp5, S. cerevisiae, endogenous in the Δpih1-90S; the newly modelled N-terminal domain holds residues 1–141; Endogenous protein of the 90S particle; only part of it is modelled in the map
B3: His-Lcp5(1–160) (domain or fragment, S. cerevisiae, UniProt P40079 1-160, looked up)
chain: MSELNALLKDINGSLTATSESLERLSGIYSNSATDEIPESNQLHEHLFYDAKKPAEKVSLLSLKNGSMLGYINSLLMLIGNRLDDECKDPSAMDARERSIQHRVVLERGVKPLEKKLAYQLDKLTRAYVKMEKEYKDAEKRALEKSTLVNHSGNDDSEDD
notes: Lcp5, S. cerevisiae, residues 1–160, polyhistidine tagged; The methods describe only the cloning of the untagged Lcp5(1–160); also called polyhistidine tagged Lcp5 fragment 1–160; source: bacteria expression host, purified

Key:
Settings in all cases: both partners purified
[1] = molecular target: T1, Enp2; test: cryo-EM structure; Δpih1-90S purified from yeast by tandem affinity (Pwp2-TAP on IgG Sepharose, Kre33-TwinStrep on Strep-Tactin); 3.99 Å overall, 5.04 Å for the head (5' domain) where Bfr2-Lcp5 lies; Bfr2-Lcp5 model placed with the aid of AlphaFold
[2] = molecular target: B1; test: as above
[3] = molecular target: T2, MBP-Bfr2(266–432); test: pull-down; in vitro: purified MBP, MBP-Bfr2(360–432) or MBP-Bfr2(266–432) as bait with purified His-Lcp5(1–160)

## B1
[1]
  binding result: binds

## B2
[2]
  binding result: binds

## B3
[3]
  binding result: binds
